# Data as given in the nanobody polyreactivity screen of Harvey et al. (2022).
# Experiment: yeast display, Sf9 membrane polyspecificity reagent, FACS + sequencing; frameworks hold sequencing errors
# Summary of the method: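 After 36–48 hours of galactose induction, yeast (Saccharomyces cerevisiae BJ5465) displaying a synthetic nanobody library were stained at 4 °C for 1 hour with 10% biotinylated, detergent-solubilized Sf9 membrane reagent. Streptavidin microbeads enriched the stained cells before FACS sorting into low and high (top ~1%) gates on anti-HA and streptavidin fluorescence. Each clone's polyreactivity label reflects its gate of origin.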
row,Sequence,polyreactivity (PSR sort gate)
1,QVQLVESGGGLVQAGGRLRLSCAASGFTLTRNAMGWYRQAPGKERELVAAISWSGGTTYYADSVKGRFTISRDNAKNTVYLQMNSLKPEDTAVYYCNTASLRAHYYYWGQGTQVTVSS,high polyreactivity
2,QVQLVESGGGLVQAGGRLRLSCAASGFTQGSYAMGWHRQAPGKEREFVAGITDSGGSTYYADSVKGRYTISRDNAKNTVYLQMNSLKPEDTAVYDCNADFAPWDKQDYPYDYDYWGQGTQVTVSS,low polyreactivity
3,QVQLVESGGGLVQAGGRLRLSCAASGITFKRYAMGWYRQAPRKERELVAAISDIGGRTYYADSVKGRFSISRDNAKNTVYLQMYSLKPEDTAVYYCAADYYSPVDWYYYWGQGTQVTVSS,high polyreactivity
4,QVQLVESGGGLVQAGGRLRLSCAASGITFWTYAMGWYRQAPGKERELVARISKSGARTFYADSVKGRFTISRDNAKNTVYLQMNSLKPEDTAVYYCAADRGPRPVTWYDYWGQGTQVTVSS,high polyreactivity
5,QVQLVESGGGLVQAGGRLRLSCAASGITSDVYAMGWYRQAPGKERELVAAISSAGSTYYADSVKGRFTISRDNAKNTVYLQMNSLKPEDTAVYYCDAAGYPQTYLYYYWGQGTQVTVSS,low polyreactivity
6,QVQLVESGGGLVQAGGRLRLSCAASGLTFYRNAMGWYRQAPGKERELVAAITTSGARTYYADSVKGRFTISRDNAKNTVYLRMNSLKPDVTAVYYCNAPVRRDVAYGYWGQGTQVTVSS,high polyreactivity
7,QVQLVESGGGLVQAGGRLRLSCAASGLTLRWYAMGWYRQAPGKERELVAVISGSGSTNYADSVKGRFTISRDNAKNTVYLQMNSLKPEDTAVYYCAAQSHLGTPQRFGYWGQGTQVTVSS,low polyreactivity
8,QVQLVESGGGLVQAGGRLRLSCAASGNTFGINAMGWYRQAPGKEREFVAAITFGGGRTYYADSVKGRFTISRDNAKNTVYFQMNSLKPEDTAVYFCAARAPVVTYTWSSPRWWFDYWGQGTQVTVSS,high polyreactivity
9,QVQLVESGGGLVQAGGRLRLSCAASGRIFKRYAMGWYRQAPGKESELVAAISWRGGSTYYADSVKGRFTISRDNAKNTVYFQMNSLKPEDTAVYYCAAGYFSYRRYDYWGQGTQVTVSS,high polyreactivity
10,QVQLVESGGGLVQAGGRLRLSCAASGRIFSYAMGWYRHAPGNERELVGGISRSGGSTYYADSVKGRFTISRDNAKNTVYLQMNSQKPVDTAVYYCAADSSLSASEYDSWGQGTQVTVSS,high polyreactivity
11,QVQLVESGGGLVQAGGRLRLSCAASGRIFVQYVMGWYRQAPGKERELVAAITGSDSTTYYADSVKGRFTISRDNAKNTVYLQMNSLKPEDTAVYYCNKDLWLQDDYWGQGTQVTVSS,low polyreactivity
12,QVQLVESGGGLVQAGGRLRLSCAASGRIFWSNTMGWYRQAPGKERELVAAISGRGGSTYYPDSVKGRFTISRDNAKNTVYLQMNSLKPEDTAVYYCAAKPTRSRKIYEYWGQGTQVTVSS,low polyreactivity
13,QVQLVESGGGLVQAGGRLRLSCAASGRIFYPYDMGWYRQEPGKERELVAAISRSDGITYYADSVKGRFTISRDNAKNTVYLQMKSLKPEDTPVYYCAADDPSGHYPDFEYWGQGTQVTVSS,low polyreactivity
14,QVQLVESGGGLVQAGGRLRLSCAASGRILYVYLMGWYRQAPGKERELGAAISRRGGGTYYADSVKGRFTISRDNAKNTVYLQMNSLKPEDTAVYYCATDQYYEYDYWGQGTQVTVSS,low polyreactivity
15,QVQLVESGGGLVQAGGRLRLSCAASGRTFDDYAMGWYRQAPGKERELVAVITSGGRTKYADSVKGRFTISRDNAKNTVYLQMNSLKPEDTAVYYCAAREVHDRYGYWGQGTQVTVSS,high polyreactivity
16,QVQLVESGGGLVQAGGRLRLSCAASGRTFFGYAMGWYRQAPGKERELVAAITSSGGRTYYADSVKGRFTISRDNAKNTVYLQMNSLKPEDTAVYYCNTVLSFRSVNIYRGRGDYWGQGTQVTVSS,high polyreactivity
17,QVQLVESGGGLVQAGGRLRLSCAASGRTFGINAMGWYRQEPGKERELVASISSGGRTNYADSVKGRFTISRHNAKNTVYLQMNSLKPEDTAVYYCARSRLGRAYGRYDYWGQGTQVTVSS,low polyreactivity
18,QVQLVESGGGLVQAGGRLRLSCAASGRTFGQNAMGWYRQAPGKERELVAVISSRGGSTYYADSVKGRFTISRDNAKNTVYLQMNSLKPEDTAVYYCAKARRKPGAVDYWGQGTQVTVSS,high polyreactivity
19,QVQLVESGGGLVQAGGRLRLSCAASGRTFLVNAMGWYRQAPGKERELVAAISQRGGSTDYADSVKGRFTISRDNAKNTVYLQMNSLKPEDTAVYYCAVRWGYLYDYWGQVTQVTVSS,low polyreactivity
20,QVQLVESGGGLVQAGGRLRLSCAASGRTFRGNVMGWYRQAPGKEREFVAAITKSDGSTYYADSVKGRFTISRDNAKNTVYLQMNSLKPEDTAVYYCAARTGRTGWPWFRYDYWGQGTQVTVSS,low polyreactivity
21,QVQLVESGGGLVQAGGRLRLSCAASGRTFRWYAMGRYRQAPGKERELVADISSVGSTDYADSVKGRFTISRDNAKNTVYLQMNSLKPEDTAVYFCAADFSPRRYHNLSFGYWGQGTQVTVSS,low polyreactivity
22,QVQLVESGGGLVQAGGRLRLSCAASGRTFSNYAKGWYRQAPGKEREFVAGIRYNGGSTYYADSVKGRFTISRDNAKNTVYLQMKSLKPEDTAVYYCAARYSRSMDYWGQGTQVTVSS,high polyreactivity
